Tests used:
CLR = CLR (Homo sapiens, UniProt Q16602); assay: BRET GPCR–RAMP interaction; type: binding; details: COS-7; receptor-Rluc8:RAMP-Ypet 1:0.25 to 1:16; pH 7.4, 37 °C; mean ± SEM n≥3
GIPR = biological target: T1, GIPR (Homo sapiens, UniProt P48546); assay: BRET GPCR–RAMP interaction; type: binding; details: COS-7; receptor-Rluc8:RAMP-Ypet 1:0.25 to 1:16; pH 7.4, 37 °C; mean ± SEM n≥3
T1 sequence (P48546 22-466): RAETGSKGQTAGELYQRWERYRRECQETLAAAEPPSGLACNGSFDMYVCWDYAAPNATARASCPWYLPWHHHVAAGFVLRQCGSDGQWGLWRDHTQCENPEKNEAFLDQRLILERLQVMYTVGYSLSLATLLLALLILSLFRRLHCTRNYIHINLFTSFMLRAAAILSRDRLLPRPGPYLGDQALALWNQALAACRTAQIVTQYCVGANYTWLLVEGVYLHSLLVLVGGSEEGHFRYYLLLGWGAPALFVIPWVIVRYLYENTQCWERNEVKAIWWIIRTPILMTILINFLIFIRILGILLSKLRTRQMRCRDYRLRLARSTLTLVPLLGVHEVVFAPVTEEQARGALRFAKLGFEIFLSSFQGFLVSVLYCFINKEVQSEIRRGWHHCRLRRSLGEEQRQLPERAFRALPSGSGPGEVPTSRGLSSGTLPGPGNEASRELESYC

GLP-2R [1] = biological target: T2, GLP-2R (Homo sapiens, UniProt O95838); assay: Gαq activation; type: cell-based; details: HEK293A; RAMP2
T2 sequence (O95838 1-553): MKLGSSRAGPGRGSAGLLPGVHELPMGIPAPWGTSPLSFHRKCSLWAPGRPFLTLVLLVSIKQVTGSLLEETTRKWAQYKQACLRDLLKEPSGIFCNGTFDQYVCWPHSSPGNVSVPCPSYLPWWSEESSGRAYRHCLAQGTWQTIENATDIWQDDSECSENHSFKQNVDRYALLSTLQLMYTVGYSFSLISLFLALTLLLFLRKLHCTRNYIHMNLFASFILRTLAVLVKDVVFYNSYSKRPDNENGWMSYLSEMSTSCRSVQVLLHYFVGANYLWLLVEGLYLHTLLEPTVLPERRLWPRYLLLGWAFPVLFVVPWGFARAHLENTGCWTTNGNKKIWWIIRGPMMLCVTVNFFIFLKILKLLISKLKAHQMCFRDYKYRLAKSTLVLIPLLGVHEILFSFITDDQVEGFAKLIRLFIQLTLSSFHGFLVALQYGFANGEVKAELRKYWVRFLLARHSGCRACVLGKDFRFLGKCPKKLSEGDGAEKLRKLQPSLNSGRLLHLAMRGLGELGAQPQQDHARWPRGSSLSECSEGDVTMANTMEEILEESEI

GCGR [2] = biological target: T3, GCGR (Homo sapiens, UniProt P47871); details: CHO-K1 ref [38]; cited from earlier work
GLP-1R = GLP-1R (Homo sapiens, UniProt P43220); assay: BRET GPCR–RAMP interaction; type: binding; details: COS-7; receptor-Rluc8:RAMP-Ypet 1:0.25 to 1:16; pH 7.4, 37 °C; mean ± SEM n≥3
GCGR [3] = biological target: T3, GCGR; assay: BRET GPCR–RAMP interaction; type: binding; details: COS-7; receptor-Rluc8:RAMP-Ypet 1:0.25 to 1:16; pH 7.4, 37 °C; mean ± SEM n≥3
SV1 [4] = biological target: T4, SV1 (Homo sapiens, UniProt Q02643); assay: BRET GPCR–RAMP interaction; type: binding; details: COS-7; receptor-Rluc8:RAMP-Ypet 1:0.25 to 1:16; pH 7.4, 37 °C; mean ± SEM n≥3
T4 sequence (Q02643 90-423 limits assumed): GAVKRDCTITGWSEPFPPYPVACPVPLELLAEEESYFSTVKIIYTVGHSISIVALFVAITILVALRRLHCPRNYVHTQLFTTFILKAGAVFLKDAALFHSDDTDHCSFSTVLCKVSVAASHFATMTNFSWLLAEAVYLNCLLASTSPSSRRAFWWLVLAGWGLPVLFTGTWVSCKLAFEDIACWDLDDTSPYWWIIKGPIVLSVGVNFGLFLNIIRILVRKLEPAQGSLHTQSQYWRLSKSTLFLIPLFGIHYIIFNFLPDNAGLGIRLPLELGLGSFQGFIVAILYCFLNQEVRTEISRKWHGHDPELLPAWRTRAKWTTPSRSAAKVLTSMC

SCTR = assay: BRET GPCR–RAMP interaction; type: binding; details: COS-7; receptor-Rluc8:RAMP-Ypet 1:0.25 to 1:16; pH 7.4, 37 °C; mean ± SEM n≥3
GHRHR [5] = biological target: T5, GHRHR (Homo sapiens, UniProt Q02643); assay: BRET GPCR–RAMP interaction; type: binding; details: COS-7; receptor-Rluc8:RAMP-Ypet 1:0.25 to 1:16; pH 7.4, 37 °C; mean ± SEM n≥3
T5 sequence (Q02643 23-423): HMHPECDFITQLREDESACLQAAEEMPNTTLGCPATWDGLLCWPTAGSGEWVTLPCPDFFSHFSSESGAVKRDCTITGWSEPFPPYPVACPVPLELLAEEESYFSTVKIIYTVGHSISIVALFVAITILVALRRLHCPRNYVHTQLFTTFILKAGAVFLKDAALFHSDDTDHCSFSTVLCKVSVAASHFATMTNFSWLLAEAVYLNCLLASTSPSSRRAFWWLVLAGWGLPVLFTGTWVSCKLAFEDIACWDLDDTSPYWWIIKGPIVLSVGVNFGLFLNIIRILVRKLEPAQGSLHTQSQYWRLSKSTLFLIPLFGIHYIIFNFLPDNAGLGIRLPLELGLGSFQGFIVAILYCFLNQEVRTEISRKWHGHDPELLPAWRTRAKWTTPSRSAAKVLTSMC

COS-7 cells = assay: RAMP cell surface expression; type: cell-based
GLP-2R [6] = biological target: T2, GLP-2R; assay: BRET GPCR–RAMP interaction; type: binding; details: COS-7; receptor-Rluc8:RAMP-Ypet 1:0.25 to 1:16; pH 7.4, 37 °C; mean ± SEM n≥3
GCGR [7] = biological target: T3, GCGR; details: CHO-K1 ref [38]; cited from earlier work; remark: listed apart in the source
SV1 [8] = biological target: T4, SV1; assay: cAMP accumulation; details: COS-7; RAMP3
GHRHR [9] = biological target: T5, GHRHR; assay: cAMP accumulation; details: COS-7; RAMP3

T3 sequence (P47871 26-477, species assumed): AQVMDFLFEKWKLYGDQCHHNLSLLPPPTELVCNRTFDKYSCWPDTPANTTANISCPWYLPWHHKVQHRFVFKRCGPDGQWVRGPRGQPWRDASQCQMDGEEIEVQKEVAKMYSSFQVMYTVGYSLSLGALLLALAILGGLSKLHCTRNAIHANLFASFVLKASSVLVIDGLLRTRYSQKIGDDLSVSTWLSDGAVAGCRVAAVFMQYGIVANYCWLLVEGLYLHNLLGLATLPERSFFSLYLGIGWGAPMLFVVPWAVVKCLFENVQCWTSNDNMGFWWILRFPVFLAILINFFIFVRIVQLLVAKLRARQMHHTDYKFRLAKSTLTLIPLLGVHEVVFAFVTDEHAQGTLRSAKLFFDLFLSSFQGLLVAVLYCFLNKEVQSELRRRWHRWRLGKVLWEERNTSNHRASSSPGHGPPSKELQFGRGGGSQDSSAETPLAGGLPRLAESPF
Chain of CLR (Q16602 23-461): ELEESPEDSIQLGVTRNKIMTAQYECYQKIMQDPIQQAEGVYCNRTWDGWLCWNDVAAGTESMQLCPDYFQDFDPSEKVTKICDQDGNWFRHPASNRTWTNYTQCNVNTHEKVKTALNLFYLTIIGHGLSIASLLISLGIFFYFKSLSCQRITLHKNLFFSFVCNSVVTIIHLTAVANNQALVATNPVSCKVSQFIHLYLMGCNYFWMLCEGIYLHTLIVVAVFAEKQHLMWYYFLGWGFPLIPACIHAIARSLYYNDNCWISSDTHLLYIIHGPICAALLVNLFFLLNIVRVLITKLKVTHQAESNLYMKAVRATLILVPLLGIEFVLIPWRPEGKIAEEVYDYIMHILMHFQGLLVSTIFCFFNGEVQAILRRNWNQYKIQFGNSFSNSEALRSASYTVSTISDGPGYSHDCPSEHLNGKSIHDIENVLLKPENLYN
Chain of GLP-1R (P43220 24-463): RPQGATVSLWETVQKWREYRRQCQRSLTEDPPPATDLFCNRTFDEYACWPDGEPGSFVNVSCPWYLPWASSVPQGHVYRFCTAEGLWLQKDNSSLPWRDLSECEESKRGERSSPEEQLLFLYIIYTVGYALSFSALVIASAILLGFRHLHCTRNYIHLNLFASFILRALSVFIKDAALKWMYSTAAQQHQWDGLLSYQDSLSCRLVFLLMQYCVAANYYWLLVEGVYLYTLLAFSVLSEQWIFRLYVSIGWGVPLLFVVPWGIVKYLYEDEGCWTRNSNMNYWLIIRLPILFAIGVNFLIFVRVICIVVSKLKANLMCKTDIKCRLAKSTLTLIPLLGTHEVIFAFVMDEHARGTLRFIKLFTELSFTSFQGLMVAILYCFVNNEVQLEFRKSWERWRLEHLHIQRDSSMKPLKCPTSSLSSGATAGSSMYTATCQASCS

B1: receptor activity-modulating protein 2 (protein)
chain: QPLPTTGTPGSEGGTVKNYETAVQFCWNHYKDQMDPIEKDWCDWAMISRPYSTLRDCLEHFAELFDLGFPNPLAERIIFETHQIHFANCSLVQPTFSDPPEDVLLAMIIAPICLIPFLITLVVWRSKDSEAQA
modifications: left off: Ypet, C-terminal, kept
Bmax (maximum measured BRET value) (CLR): 0.468 ± 0.042
Bmax (maximum measured BRET value) (GIPR): 0.474 ± 0.122
effect of RAMP on potency, Gαq activation (GLP-2R [1]): nominal reduction
Gαq signaling (GCGR [2]): attenuated Gαq signaling
Bmax (maximum measured BRET value) (GLP-1R): 0.397 ± 0.092
Bmax (maximum measured BRET value) (GCGR [3]): 0.578 ± 0.072
Bmax (maximum measured BRET value) (SV1 [4]): 0.843 ± 0.102
Bmax (maximum measured BRET value) (SCTR): 0.434 ± 0.051
Bmax (maximum measured BRET value) (GHRHR [5]): 0.393 ± 0.025
RAMP cell surface expression (COS-7 cells; co-expression with glucagon receptor family members, FLAG-RAMP): negligible
Bmax (maximum measured BRET value) (GLP-2R [6]): 0.567 ± 0.234
β-arrestin recruitment (GCGR [7]): abolished β-arrestin recruitment

B2: receptor activity-modulating protein 3 (protein)
chain: RAGGCNETGMLERLPLCGKAFADMMGKVDVWKWCNLSEFIVYYESFTNCTEMEANVVGCYWPNPLAQGFITGIHRQFFSNCTVDRVHLEDPPDEVLIPLIVIPVVLTVAMAGLVVWRSKRTDTLL
modifications: left off: Ypet, C-terminal, kept
Bmax (maximum measured BRET value) (CLR): 0.511 ± 0.058
Bmax (maximum measured BRET value) (GIPR): 0.729 ± 0.061
effect of RAMP on cAMP response (SV1 [8]): marked response
effect of RAMP on cAMP response (GHRHR [9]): no effect
Bmax (maximum measured BRET value) (GLP-1R): 0.862 ± 0.100
Bmax (maximum measured BRET value) (GCGR [3]): 1.102 ± 0.165
Bmax (maximum measured BRET value) (SV1 [4]): 1.842 ± 0.754
Bmax (maximum measured BRET value) (SCTR): 0.995 ± 0.058
Bmax (maximum measured BRET value) (GHRHR [5]): 0.948 ± 0.139
RAMP cell surface expression (COS-7 cells; co-expression with GCGR, FLAG-RAMP): negative
RAMP cell surface expression (COS-7 cells; co-expression with SCTR, FLAG-RAMP, effect of receptor on RAMP3): negative
RAMP cell surface expression (COS-7 cells; co-expression with SV1, FLAG-RAMP): negative
Bmax (maximum measured BRET value) (GLP-2R [6]): 0.689 ± 0.128
